# Experimental data reported in patent publication US20180002381A1 (HONG KONG POLYTECHNIC UNIVERSITY, published 2018).
# Substitutions are numbered along the chain they refer to. Names and notes keep the numbering of the source. No end group written: not given here.
# B1: Beclin 1 coiled coil 2 (CC2) (other)
# chain: EERLIQELEDVEKNRKVVAENLEKVQAEAERLDQEEAQYQREYSEFKRQ
# notes: 7 heptad repeats of the Beclin1 coiled coil domain
# B2: Beclin 1 coiled coil 3 (CC3) (other)
# chain: RKVVAENLEKVQAEAERLDQEEAQYQREYSEFKRQQLELDDELKSVENQ
# notes: as for B1
# B3: UVRAG (228-298) (other)
# chain: TSNELKKESESLRLKILVLRNELERQKKALGREVAFLHKQQMALQDKGSAFSTEHGKLQLQKDSLSELRKE
# B4: UVRAG 6E (L232E/L239E/L246E/L250E/L264E/L271E), coiled coil domain as used in ITC (other)
# chain: B3 chain with L5E, S11C, L12E, L19E, L23E, L37E, L44E
# B5: UVRAG 2E (L246E/L250E), coiled coil domain as used in ITC (other)
# chain: B3 chain with S11C, L19E, L23E
# B6: UVRAG 5E (L232E/L239E/L246E/L250E/L264E), coiled coil domain as used in ITC (other)
# chain: B3 chain with L5E, S11C, L12E, L19E, L23E, L37E
# B7: FLAG-tagged full length Mus musculus UVRAG wild type (other, not shown: small tags and cut ends)
# chain: MSSCASLGGPVPLPPPGPSAALTSGAPARALHVELPSQQRRLRHLRNIAARNIVNRNGHQLLDTYFTLHLCDNEKIFKEFYRSEVIKNSLNPTWRSLDFGIMPDRLDTSVSCFVVKIWGGKEEAFQLLIEWKVYLDGLKYLGQQIHARNQNEIIFGLNDGYYGAPCEHKGHPNAQKNLLQVDQNCVRNSYDVFSLLRLHRAQCAIKQTQVTVQRLGKEIEEKLRLTSTSNELKKESECLRLKILVLRNELERQKKALGREVAFLHKQQMALQDKGSAFSTEHGKLQLQKDSLSELRKECTAKRELFLKTNAQLTIRCRQLLSELSYIYPIDLNEHKDYFVCGVKLPNSEDFQAKEDGSIAVALGYTAHLVSMISFFLQVPLRYPIIHKGSRSTIKDNINDKLTEKEREFPLYPKGGEKLQFDYGVYLLNKNIAQLRYQHGLGTPDLRQTLPNLKNFMEHGLMVRCDRHHISNAIPVPKRQSSTFGGADGGFSAGIPSPDKVHRKRASSENERLQYKTPPPSYNSALTQPGVAMPTSGDSERKVAPLSSSLDTSLDFSKENKKAGVDLGSSVSGDHGNSDSGQEQGEALPGHLAAVNGTALPSEQAGPAGTLLPGSCHPAPSAELCCAVEQAEEIIGLEATGFTSGDQLEALSCIPVDSAVAVECDEQVLGEFEEFSRRIYALSENVSSFRRPRRSSDK
# B8: FLAG-tagged full length Mus musculus UVRAG 1E (L246E) (other, not shown: small tags and cut ends)
# chain: B7 chain with L246E
# B9: FLAG-tagged full length Mus musculus UVRAG 2E (L246E/L250E) (other, not shown: small tags and cut ends)
# chain: B7 chain with L246E, L250E
# B10: Beclin 1 coiled coil 4 (CC4) (other)
# chain: AERLDQEEAQYQREYSEFKRQQLELDDELKSVENQMRYAQMQADKLKKTN
# notes: as for B1
# B11: Coiled coil domain of UVRAG (228-276) (other)
# chain: TSNELKKESESLRLKILVLRNELERQKKALGREVAFLHKQQMALQDKG
# notes: They have S at position 238 where the full-length entries have C; also called UVRAG coiled coil domain; UVRAG coiled coil
# B12: Monomeric form of Beclin1 coiled coil domain with L182A mutation (other)
# chain: DSEQLQREAKELALEEERLIQELEDVEKNRKVVAENLEKVQAEAERLDQEEAQYQREYSEFKRQQLELDDELKSVENQMRYAQMQLDKLKKTN
# notes: The entry already carries L182A
# Experiments:
# [1] = molecular target: B11; experiment: isothermal titration calorimetry, Beclin 1 construct against UVRAG coiled coil domain
# [2] = molecular target: B12; experiment: ITC
# [3] = molecular target: T1, Beclin1 coiled coil domain (wild type) (rat, UniProt Q91XJ1 174-266); experiment: isothermal titration calorimetry, wild type Beclin1 coiled coil domain and UVRAG (228-298)
# T1 construct: residues 175-266; it pairs 1:1 with UVRAG; also called CC; entire Beclin1 coiled coil domain
# Target sequence in this assay (Q91XJ1 174-266 limits assumed): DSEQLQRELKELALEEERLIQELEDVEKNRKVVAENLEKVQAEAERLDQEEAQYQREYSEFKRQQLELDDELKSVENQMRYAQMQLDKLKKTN
# [4] = molecular target: T1, Beclin1 coiled coil domain (wild type); experiment: ITC
# [5] = molecular target: endogenous Beclin1 (UniProt Q14457 1-450); experiment: cell-based or functional assay
# [6] = molecular target: T1, Beclin1 coiled coil domain (wild type); experiment: ITC; remark: listed apart in the source
# [7] = molecular target: B3; experiment: isothermal titration calorimetry, monomeric Beclin1 coiled coil domain (L182A) and UVRAG (228-298)
# Chain of endogenous Beclin1 (Q14457 whole entry, the tested form may be a part): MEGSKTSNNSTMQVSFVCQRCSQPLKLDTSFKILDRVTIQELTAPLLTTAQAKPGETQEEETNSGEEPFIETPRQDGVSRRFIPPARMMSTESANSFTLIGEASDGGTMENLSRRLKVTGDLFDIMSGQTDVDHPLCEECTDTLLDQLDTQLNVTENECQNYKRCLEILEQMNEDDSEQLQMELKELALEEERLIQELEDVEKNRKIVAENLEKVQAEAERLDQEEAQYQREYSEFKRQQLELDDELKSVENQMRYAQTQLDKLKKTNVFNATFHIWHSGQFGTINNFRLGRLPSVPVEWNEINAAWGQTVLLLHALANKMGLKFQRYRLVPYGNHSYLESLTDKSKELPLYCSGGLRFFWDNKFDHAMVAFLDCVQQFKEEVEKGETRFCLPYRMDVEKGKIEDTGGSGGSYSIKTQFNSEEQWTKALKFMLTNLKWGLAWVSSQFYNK
binder,measurement,setting,value
B1,Kd,[1],139 µM
B2,Kd,[1],671 µM
B3,binding result,[2],binds
same,Kd,[3],~240 nM
B4,binding result,[4],no binding
B5,binding result,[4],no binding
B6,binding result,[4],no binding
B7,EGFR remaining after 5 hours in A549 cells,[5],< 10%
same,half-life of EGFR in A549 cells,[5],~2 h
B8,EGFR remaining after 5 hours in A549 cells,[5],< 10%
same,half-life of EGFR in A549 cells,[5],~2 h
B9,EGFR remaining after 5 hours in A549 cells,[5],~5%
B10,Kd,[1],157 µM
B11,Kd,[6],~240 nM
B12,Kd,[7],~70 nM
"DSEQAQRELKELALEEERLIQELEDVEKNRKVVAENLEKVQAEAERLDQE (other, not fully specified) [Beclin 1 coiled coil 1 (CC1), residues 174-223]",Kd,[1],8.9 µM
